Test results: US20220169740A1 (KINDRED BIOSCIENCES, published 2022)
Values joined by “and” are separate entries in the source; they are usually repeats but may differ in a detail not shown here. Identical values can stand only once.

Tests used:
[1] = target: T1, human NGF (Sino Biological, Inc.; Catalog No. 11050-HNAC) (human, UniProt P01138 122-241, limits assumed, biotinylated in the Octet assay of Example 3 (sites not given); not biotinylated in the TF1 assay); test: BLI (Octet); biotinylated human NGF on streptavidin tips, TrkA-Fc 25 ug/mL; 1:1 fit
T1 construct: also called nerve growth factor; biotinylated NGF
T1 sequence (P01138 122-241 limits assumed): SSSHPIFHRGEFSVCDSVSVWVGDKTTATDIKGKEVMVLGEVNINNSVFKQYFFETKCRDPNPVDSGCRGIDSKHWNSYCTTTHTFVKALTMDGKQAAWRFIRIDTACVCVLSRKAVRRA
Experimental: Binding activity of canine, feline, and equine TrkA ECD v2 and v3 fusion polypeptides prepared in Example 2 (SEQ ID NOs: 16, 17, 19, 20, 22, and 23) to commercially-available human NGF was considered. The binding analysis was performed using a biosensor Octet as follows. Briefly, human NGF (Sino Biological, Inc.; Catalog No. 11050-HNAC) was biotinylated. The free unreacted biotin was removed from biotinylated NGF by extensive dialysis. Biotinylated NGF was captured on streptavidin sensor tips. The association of NGF with TrkA-Fc (25 ug/mL) was monitored for 600 seconds. Dissociation was monitored for 600 seconds. A buffer only blank curve was subtracted to correct for any drift. The data were fit to a 1:1 binding model using ForteBio™ data analysis software to determine the kₒₙ, koff, and the Kd. The buffer for dilutions and all binding steps was: 20 mM phosphate, 150 mM NaCl, pH 7.2.
FIG. 1 and FIG. 2 are sensorgrams showing that canine, feline, and equine TrkA ECD v2 and v3 fusion polypeptides all bind NGF. […] Irrelevant canine and feline IgG-Fc fusion proteins were used as a negative control.

human C1q = human C1q (human, UniProt P02745 23-245; P02746 28-253; P02747 29-245); test: method not described
human C1q, sequence (P02745 23-245 limits assumed, chain 1 of 3): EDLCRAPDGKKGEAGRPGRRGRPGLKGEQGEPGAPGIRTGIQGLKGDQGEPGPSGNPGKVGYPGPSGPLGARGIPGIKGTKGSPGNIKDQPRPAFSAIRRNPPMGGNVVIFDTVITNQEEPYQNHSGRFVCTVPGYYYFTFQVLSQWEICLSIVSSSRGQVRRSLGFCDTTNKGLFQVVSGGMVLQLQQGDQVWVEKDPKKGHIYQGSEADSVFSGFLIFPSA
human C1q, sequence (P02746 28-253 limits assumed, chain 2 of 3): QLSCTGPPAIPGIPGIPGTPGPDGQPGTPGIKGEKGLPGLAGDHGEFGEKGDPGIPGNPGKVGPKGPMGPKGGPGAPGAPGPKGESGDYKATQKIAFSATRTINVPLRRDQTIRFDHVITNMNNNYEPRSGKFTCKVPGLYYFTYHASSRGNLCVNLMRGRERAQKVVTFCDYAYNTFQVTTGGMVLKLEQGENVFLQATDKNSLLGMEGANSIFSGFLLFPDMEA
human C1q, sequence (P02747 29-245 limits assumed, chain 3 of 3): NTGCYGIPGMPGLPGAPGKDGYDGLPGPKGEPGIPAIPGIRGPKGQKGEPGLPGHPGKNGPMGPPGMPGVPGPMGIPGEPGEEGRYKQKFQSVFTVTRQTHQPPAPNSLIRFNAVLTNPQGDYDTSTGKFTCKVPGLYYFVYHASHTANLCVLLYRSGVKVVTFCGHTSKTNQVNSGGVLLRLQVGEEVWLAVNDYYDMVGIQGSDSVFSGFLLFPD

[2] = target: T2, canine FcRn with a poly-His tag / canine B2M heterodimer complex (canine, biotinylated where immobilised on the Biacore chip); test: SPR (Biacore T200), steady state, 25 C, pH 6.0; SASA-tagged Fc polypeptide immobilised on CM5 chip, canine FcRn/B2M complex 12.5-200 nM as analyte
T2 construct: Made in HEK cells, Ni-NTA purified; also called canine FcRn/B2M complex; soluble canine FcRn/B2M complex
T2 chain: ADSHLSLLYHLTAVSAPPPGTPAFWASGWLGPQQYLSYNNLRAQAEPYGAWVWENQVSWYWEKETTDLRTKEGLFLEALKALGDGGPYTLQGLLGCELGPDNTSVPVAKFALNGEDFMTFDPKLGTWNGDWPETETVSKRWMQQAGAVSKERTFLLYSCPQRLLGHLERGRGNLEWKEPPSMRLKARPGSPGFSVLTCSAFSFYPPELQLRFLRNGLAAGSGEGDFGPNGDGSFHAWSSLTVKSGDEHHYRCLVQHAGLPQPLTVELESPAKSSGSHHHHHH
T2 b2m: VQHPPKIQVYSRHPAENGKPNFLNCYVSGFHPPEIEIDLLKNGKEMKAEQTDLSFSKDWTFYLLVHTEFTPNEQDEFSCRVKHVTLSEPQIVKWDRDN
Experimental: Binding analysis was performed using a Biacore T200. Briefly, the lead variant canine IgG-B Fc polypeptides with an SASA tag were each immobilized to a Series S Sensor Chip CM5. […] A running buffer of 10 mM HEPES, 500 mM NaCl, 3 mM EDTA, 0.005% Tween-20, pH 6.0 was used. A buffer only blank curve was used as a control.

[3] = target: T2, canine FcRn with a poly-His tag / …; test: SPR (Biacore T200), pH 6.0; biotinylated canine FcRn/B2M complex immobilised, Fc polypeptide as analyte
Text: The koff of each of the lead variant canine IgG-B polypeptides was further investigated. Biotinylated canine FcRn/B2M complex was immobilized on a Biacore chip and exposed to each variant canine IgG-B polypeptide as an analyte using a Biacore T200 at pH 6.0.

B1: Feline TrkA ECD v3-wildtype feline IgG2 Fc (Fc fusion)
chain: VSFPASVQLHAAVELHHWCIPFSVDGQPAPSLRWLFNGSVLNETSFIFTEFLEPAANETVRHGCLRLNQPTHVNNGNYTLLAANPSGRAAASVLAAFMDNPSGGGSGGGSPKTASTIESKTGEGPKCPVPEIPGAPSVFIFPPKPKDTLSISRTPEVTCLVVDLGPDDSNVQITWFVDNTEMHTAKTRPREEQFNSTYRVVSVLPILHQDWLKGKEFKCKVNSKSLPSAMERTISKAKGQPHEPQVYVLPPTQEELSENKVSVTCLIKGFHPPDIAVEWEITGQPEPENNYQTTPPQLDSDGTYFLYSRLSVDRSHWQRGNTYTCSVSHEALHSHHTQKSLTQSPGK
notes: CHO; also called feline TrkA ECD v3 fusion polypeptide; feline TrkA v3
Kd [1]: ~1 nM

B2: Equine TrkA ECD v3-variant equine IgG2 Fc (Protein A+, C1q-, CD16-) (Fc fusion)
chain: VSFPASVHLQTAVEQHHWCIPFSVDGQPAPTLRWLFNGSVLNETSFIFTEFLESAANETMRHGCLRLNQPTHVNNGNYTLLATNPYGQDSASVMVAFMDNPPPCVLSAEGVIPIPSVPKPQCPPYTHSKFLGGPSVFIFPPNPKDTLMISRTPVVTCVVVNLSDQYPDVQFSWYVDNTEVHSAITKQREAQFNSTYRVVSVLPIQHQDWLSGKEFKCSVTNVGVPQPISRAISRGKGPSRVPQVYVLPPHPDELAKSKVSVTCLVKDFYPPDISVEWQSNRWPELEGKYSTTPAQLDGDGSYFLYSKLSLETSRWQQVESFTCAVMHEALHNHYTKTDISESLGK
notes: CHO; also called equine TrkA ECD v3 fusion polypeptide; equine TrkA v3
Kd [1]: ~1 nM

B3: fusion protein comprising wild-type canine IgG-B Fc (Fc fusion, not shown: large carriers)
chain: PAPEMLGGPSVFIFPPKPKDTLLIARTPEVTCVVVDLDPEDPEVQISWFVDGKQMQTAKTQPREEQFNGTYRVVSVLPIGHQDWLKGKQFTCKVNNKALPSPIERTISKARGQAHQPSVYVLPPSREELSKNTVSLTCLIKDFFPPDIDVEWQSNGQQEPESKYRTTPPQLDEDGSYFLYSKLSVDKSRWQRGDTFICAVMHEALHNHYTQESLSHSPGK
binding result (human C1q): binds

B4: fusion protein comprising variant canine IgG-B Fc K(93)R (Fc fusion, not shown: large carriers)
chain: PAPEMLGGPSVFIFPPKPKDTLLIARTPEVTCVVVDLDPEDPEVQISWFVDGKQMQTAKTQPREEQFNGTYRVVSVLPIGHQDWLKGKQFTCRVNNKALPSPIERTISKARGQAHQPSVYVLPPSREELSKNTVSLTCLIKDFFPPDIDVEWQSNGQQEPESKYRTTPPQLDEDGSYFLYSKLSVDKSRWQRGDTFICAVMHEALHNHYTQESLSHSPGK
notes: also called variant canine IgG-B Fc K(93)R fusion protein
binding result (human C1q): binds

B5: wild-type canine IgG-B Fc polypeptide (other)
chain: PAPEMLGGPSVFIFPPKPKDTLLIARTPEVTCVVVDLDPEDPEVQISWFVDGKQMQTAKTQPREEQFNGTYRVVSVLPIGHQDWLKGKQFTCKVNNKALPSPIERTISKARGQAHQPSVYVLPPSREELSKNTVSLTCLIKDFFPPDIDVEWQSNGQQEPESKYRTTPPQLDEDGSYFLYSKLSVDKSRWQRGDTFICAVMHEALHNHYTQESLSHSPGK
notes: Expressed from plasmid pFASEBA in E. coli with an SASA tag; also called wildtype IgG-B Fc polypeptide; not shown: SASA tag
Kd [2]: 1250 nM | koff [3]: 0.122 s⁻¹

B6: variant canine IgG-B Fc polypeptide L(23)F (other)
chain: PAPEMLGGPSVFIFPPKPKDTLFIARTPEVTCVVVDLDPEDPEVQISWFVDGKQMQTAKTQPREEQFNGTYRVVSVLPIGHQDWLKGKQFTCKVNNKALPSPIERTISKARGQAHQPSVYVLPPSREELSKNTVSLTCLIKDFFPPDIDVEWQSNGQQEPESKYRTTPPQLDEDGSYFLYSKLSVDKSRWQRGDTFICAVMHEALHNHYTQESLSHSPGK
notes: E. coli expressed, with SASA tag; also called F00; not shown: SASA tag
Kd [2]: 367 nM | koff [3]: 0.0631 s⁻¹ and 0.0847 s⁻¹

B7: variant canine IgG-B Fc polypeptide L(23)M (other)
chain: PAPEMLGGPSVFIFPPKPKDTLMIARTPEVTCVVVDLDPEDPEVQISWFVDGKQMQTAKTQPREEQFNGTYRVVSVLPIGHQDWLKGKQFTCKVNNKALPSPIERTISKARGQAHQPSVYVLPPSREELSKNTVSLTCLIKDFFPPDIDVEWQSNGQQEPESKYRTTPPQLDEDGSYFLYSKLSVDKSRWQRGDTFICAVMHEALHNHYTQESLSHSPGK
notes: not shown: SASA tag
Kd [2]: 406 nM | koff [3]: 0.126 s⁻¹

B8: variant canine IgG-B Fc polypeptide L(23)Y (other)
chain: PAPEMLGGPSVFIFPPKPKDTLYIARTPEVTCVVVDLDPEDPEVQISWFVDGKQMQTAKTQPREEQFNGTYRVVSVLPIGHQDWLKGKQFTCKVNNKALPSPIERTISKARGQAHQPSVYVLPPSREELSKNTVSLTCLIKDFFPPDIDVEWQSNGQQEPESKYRTTPPQLDEDGSYFLYSKLSVDKSRWQRGDTFICAVMHEALHNHYTQESLSHSPGK
notes: E. coli expressed, with SASA tag; also called Y00; not shown: SASA tag
Kd [2]: 113 nM | koff [3]: 0.0138 s⁻¹

B9: variant canine IgG-B Fc polypeptide YTE (other, not shown: small tags and cut ends)
chain: PAPEMLGGPSVFIFPPKPKDTLYITREPEVTCVVVDLDPEDPEVQISWFVDGKQMQTAKTQPREEQFNGTYRVVSVLPIGHQDWLKGKQFTCKVNNKALPSPIERTISKARGQAHQPSVYVLPPSREELSKNTVSLTCLIKDFFPPDIDVEWQSNGQQEPESKYRTTPPQLDEDGSYFLYSKLSVDKSRWQRGDTFICAVMHEALHNHYTQESLSHSPGK
notes: also called Leu23Tyr Ala25Thr Thr27Glu
Kd [2]: 86.2 nM

B10: variant canine IgG-B polypeptide L(23)S (other)
chain: PAPEMLGGPSVFIFPPKPKDTLSIARTPEVTCVVVDLDPEDPEVQISWFVDGKQMQTAKTQPREEQFNGTYRVVSVLPIGHQDWLKGKQFTCKVNNKALPSPIERTISKARGQAHQPSVYVLPPSREELSKNTVSLTCLIKDFFPPDIDVEWQSNGQQEPESKYRTTPPQLDEDGSYFLYSKLSVDKSRWQRGDTFICAVMHEALHNHYTQESLSHSPGK
notes: not shown: SASA tag
koff [3]: 0.241 s⁻¹

B11: Canine TrkA ECD v2-wildtype canine IgG-B Fc (Fc fusion)
chain: VSFPASVQLHEAVELHHWCIPFSVDGQPAPSLRWLFNGSVLNETSFIFTEFLEPVANETVRHGCLRLNQPTHVNNGNYTLLAANPSGRAAAFVMAAFMDNPFEFNPEDPIPVSFSPVDTNSTSGDSGGGSGGGSRPPDCPKCPAPEMLGGPSVFIFPPKPKDTLLIARTPEVTCVVVDLDPEDPEVQISWFVDGKQMQTAKTQPREEQFNGTYRVVSVLPIGHQDWLKGKQFTCKVNNKALPSPIERTISKARGQAHQPSVYVLPPSREELSKNTVSLTCLIKDFFPPDIDVEWQSNGQQEPESKYRTTPPQLDEDGSYFLYSKLSVDKSRWQRGDTFICAVMHEALHNHYTQESLSHSPGK
notes: made in CHO cells; also called canine TrkA ECD v2 fusion polypeptide; canine TrkA v2
Kd [1]: ~1 nM

B12: Canine TrkA ECD v3-wildtype canine IgG-B Fc (Fc fusion)
chain: VSFPASVQLHEAVELHHWCIPFSVDGQPAPSLRWLFNGSVLNETSFIFTEFLEPVANETVRHGCLRLNQPTHVNNGNYTLLAANPSGRAAAFVMAAFMDNPSGGGSGGGSRPPDCPKCPAPEMLGGPSVFIFPPKPKDTLLIARTPEVTCVVVDLDPEDPEVQISWFVDGKQMQTAKTQPREEQFNGTYRVVSVLPIGHQDWLKGKQFTCKVNNKALPSPIERTISKARGQAHQPSVYVLPPSREELSKNTVSLTCLIKDFFPPDIDVEWQSNGQQEPESKYRTTPPQLDEDGSYFLYSKLSVDKSRWQRGDTFICAVMHEALHNHYTQESLSHSPGK
notes: CHO; also called canine TrkA ECD v3 fusion polypeptide; canine TrkA v3
Kd [1]: ~1 nM

B13: Feline TrkA ECD v2-wildtype feline IgG2 Fc (Fc fusion)
chain: VSFPASVQLHAAVELHHWCIPFSVDGQPAPSLRWLFNGSVLNETSFIFTEFLEPAANETVRHGCLRLNQPTHVNNGNYTLLAANPSGRAAASVLAAFMDNPFEFNPEDPIPVSFSPVDSNSTSGDSGGGSGGGSPKTASTIESKTGEGPKCPVPEIPGAPSVFIFPPKPKDTLSISRTPEVTCLVVDLGPDDSNVQITWFVDNTEMHTAKTRPREEQFNSTYRVVSVLPILHQDWLKGKEFKCKVNSKSLPSAMERTISKAKGQPHEPQVYVLPPTQEELSENKVSVTCLIKGFHPPDIAVEWEITGQPEPENNYQTTPPQLDSDGTYFLYSRLSVDRSHWQRGNTYTCSVSHEALHSHHTQKSLTQSPGK
notes: CHO; also called feline TrkA ECD v2 fusion polypeptide; feline TrkA v2
Kd [1]: ~1 nM
